Consider one substance from patent publication US20090018074A1.

One may read the Kd as the free concentration of one partner at which half of the binding sites on the other are occupied at equilibrium, for simple one-to-one binding. A higher Kd goes with weaker binding.

For experiment [1], the target named is Cad12 truncated Bt-R1a cadherin expressed in S2 cells (Manduca sexta). The experiment in a line: 125I-Cry1Ab saturation binding on suspensions of S2 cells expressing the fragment.
Experiment [2] has as its target Cad7-12 truncated Bt-R1a cadherin expressed in S2 cells (Manduca sexta). Described as above.
Experiment [3] has as its target Cad11-12 truncated Bt-R1a cadherin expressed in S2 cells (Manduca sexta). Described as above.
Experiment [4] has as its target full length Bt-R1a cadherin expressed in Drosophila S2 cells (Manduca sexta). Kind of experiment: 125I-Cry1Ab saturation binding on suspensions of S2 cells expressing full-length Bt-R1a; dissociation constant (Kcom).
Experiment [5] shares this target. The experiment in a line: 125I-Cry1Ab saturation binding on suspensions of S2 cells expressing full-length Bt-R1a.
Experiment [6] concerns the target Cad11-12 truncated Bt-R1a cadherin expressed in S2 cells (Manduca sexta). The experiment in a line: 125I-Cry1Ab saturation binding on S2 cell suspensions; reference Cad12.
Experiment [7] deals with Cad7-12 truncated Bt-R1a cadherin expressed in S2 cells (Manduca sexta). The experiment in a line: 125I-Cry1Ab saturation binding on suspensions of S2 cells expressing the fragment; dissociation constant (Kcom).

For Cry1Ab toxin (ligand), the Bmax (concentration of receptors) (fmoles/mg protein) in experiment [1] is 1410; in experiment [2], 506; in experiment [3], 3320; in experiment [5] it was 625. The equilibrium dissociation constant (Kd) was found to be 3.55 nM in experiment [4] and 2.05 nM in experiment [7]. In experiment [6], the fold concentration of binding sites against Cad12 was determined as 3 fold.
